Assay results from publication doi:10.1101/2024.07.03.601791.

Target: PR20 modified with a dansyl group at the N-terminus (Dnc-PR20)
Test: other fluorescence titration

Kapβ2 Δloop, sequence (Q92973 9-898, stated change not applied): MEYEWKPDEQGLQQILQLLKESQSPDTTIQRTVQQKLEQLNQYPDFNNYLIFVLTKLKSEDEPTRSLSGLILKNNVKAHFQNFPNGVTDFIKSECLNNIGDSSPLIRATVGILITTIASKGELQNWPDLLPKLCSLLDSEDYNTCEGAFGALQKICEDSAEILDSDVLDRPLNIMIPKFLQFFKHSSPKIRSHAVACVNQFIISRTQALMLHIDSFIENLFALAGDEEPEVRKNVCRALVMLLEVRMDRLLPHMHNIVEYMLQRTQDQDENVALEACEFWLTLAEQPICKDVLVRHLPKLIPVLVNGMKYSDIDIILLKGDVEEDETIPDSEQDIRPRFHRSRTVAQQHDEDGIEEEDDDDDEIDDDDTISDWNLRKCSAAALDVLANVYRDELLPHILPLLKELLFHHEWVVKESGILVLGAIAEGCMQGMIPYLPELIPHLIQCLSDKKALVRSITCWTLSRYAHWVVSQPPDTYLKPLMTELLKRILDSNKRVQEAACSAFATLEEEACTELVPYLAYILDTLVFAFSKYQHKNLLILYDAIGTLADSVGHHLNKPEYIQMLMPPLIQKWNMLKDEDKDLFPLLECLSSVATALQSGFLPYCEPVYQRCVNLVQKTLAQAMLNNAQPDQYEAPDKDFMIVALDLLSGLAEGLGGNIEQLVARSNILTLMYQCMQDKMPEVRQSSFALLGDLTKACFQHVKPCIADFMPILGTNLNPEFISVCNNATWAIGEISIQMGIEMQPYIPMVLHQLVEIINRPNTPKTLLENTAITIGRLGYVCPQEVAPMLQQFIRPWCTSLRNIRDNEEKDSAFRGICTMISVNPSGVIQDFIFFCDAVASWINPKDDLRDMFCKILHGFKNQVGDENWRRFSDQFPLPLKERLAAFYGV

## Kapβ2 Δloop (from UniProt Q92973-2 1-890) (natural protein)
  Kd: 310 nM
